Publication PMC7884259
pKd: −log10 of the molar value.

Target: ATAD2B bromodomain (residues 953–1085) (human) (UniProt Q9ULI0)
Assay: ITC

Sequence of ATAD2B bromodomain (residues 953–1085) (human) (Q9ULI0 953-1085): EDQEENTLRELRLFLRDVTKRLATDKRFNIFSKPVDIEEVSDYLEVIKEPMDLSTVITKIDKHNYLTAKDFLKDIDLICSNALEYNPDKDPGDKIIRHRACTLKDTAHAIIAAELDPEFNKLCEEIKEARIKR

## H4K12ac (res 4–17) (peptide)
  pKd: 4.30

## H4K12acK16ac (res 10–20) (peptide)
  pKd: 3.67
